From patent US8597922B2, “Methods and compositions for producing olefins” (LS9, Inc., priority 2007, dated 2013) come the findings set out here.

Assay type in all cases: cell-based
One assay has as its system B. subtilis IHA01. Briefly: α-Olefin production in Bacillus subtilis by heterologous expression. Conditions: 0.05% stearic acid, versus vector only control. The method, then: Genomic DNA encoding Jeotgalicoccus ATCC 8456_orf880 was cloned into the BamHI and XbaI sites of vector pHT01 under the control of the Pgrac promoter. B. subtilis IHA01 (lacA::spec leuB8 metB5 r(−)m(+) Sp, obtained from Bacillus Genetic Stock Center, Columbus, Ohio, strain number BGSC 1A785) was transformed with the resulting vector. The B. subtilis cells were grown at 37° C. in minimal medium supplemented with 2% glucose, 0.3 mM leucine, 0.3 mM methionine, and 10 mg/L chloramphenicol. When the cultures reached an OD600 of 0.8 to 1.0, 1 mM IPTG was added (to induce expression of orf880) along with 0.5 mM 5-amino laevulinic acid (as a precursor for heme biosynthesis) and 0.05% stearic acid (as a substrate for ORF880). The temperature was shifted to 25° C. and after growth for additional 18-24 h at 25° C., cells from a 1 mL culture were pelleted, resuspended in 100 μL methanol, sonicated for 1 h, and extracted with 300 μL ethyl acetate. 300 μL of water was added before separating the organic layer by centrifugation at 15,000 rpm for 5 min. The solvent layer was analyzed by GC-MS.
Genomic DNA encoding Corynebacterium efficiens YS-134 orfCE2459 was cloned into the BamHI and XbaI sites of vector pHT01 under the control of the Pgrac promoter and transformed into B. subtilis IHA01 cells. The resulting cells were grown, extracted, and analyzed as described in Example 9.

For the next assay, the system named is E. coli MG1655 ΔfadD. Nature of the assay: α-Olefins from glucose by expression of orf880 in E. coli MG1655 ΔfadD. Conditions: glucose (1%, w/v) only carbon source, versus vector-only control. The method, then:
The genomic DNA encoding ATCC 8456_orf880, which was codon-optimized for expression in E. coli (SEQ ID NO:4), was cloned into vector OP80 (pCL1920 derivative) under the control of the Ptrc promoter, and E. coli MG1655 ΔfadD was transformed with the resulting vector. The E. coli cells were grown at 37° C. in M9 mineral medium supplemented with 20 μg/mL uracil and 100 μg/mL spectinomycin. Glucose (1%, w/v) was the only source of carbon and energy. When the culture reached an OD600 of 0.8 to 1.0, IPTG (1 mM) and 0.5 mM delta-aminolaevulinic acid (heme biosynthesis precursor) were added. The temperature was shifted to 25° C. After growth for an additional 18 to 24 h at 25° C., the cells from 10 mL of culture were pelleted, resuspended in 1 mL methanol, sonicated for 30 min, and extracted with 4 mL hexane. After solvent evaporation, the samples were resuspended in 0.1 mL hexane and analyzed by GC-MS.

In assay [1] the test system is S. cerevisiae (BY4741) yeast cells. Briefly: α-Olefin production in Saccharomyces cerevisiae by heterologous expression of orf880. Conditions: expressed in S. cerevisiae. As to the method: Genomic DNA encoding Jeotgalicoccus sp. ATCC 8456_orf880 is cloned into the ApaI and XhoI sites of the yeast expression vector pESC-His. S. cerevisiae (BY4741) yeast cells are then transformed with either a plasmid containing orf880 or a plasmid not containing orf880. The transformed yeast cells are cultured under suitable conditions to allow expression of ORF880. The cells are pelleted and then lysed using YeastBuster™ (Novagen, Madison, Wis.). The α-olefins are extracted and analyzed as described in Examples 6 and 7.

B1: ORF880: olefin-producing enzyme (fatty acid decarboxylase) from Jeotgalicoccus sp. ATCC 8456, SEQ ID NO:2 (protein)
chain: MATLKRDKGLDNTLKVLKQGYLYTTNQRNRLNTSVFQTKALGGKPFVVVTGKEGAEMFYNNDVVQREGMLPKRIVNTLFGKGAIHTVDGKKHVDRKALFMSLMTEGNLNYVRELTRTLWHANTQRMESMDEVNIYRESIVLLTKVGTRWAGVQAPPEDIERIATDMDIMIDSFRALGGAFKGYKASKEARRRVEDWLEEQIIETRKGNIHPPEGTALYEFAHWEDYLGNPMDSRTCAIDLMNTFRPLIAINRFVSFGLHAMNENPITREKIKSEPDYAYKFAQEVRRYYPFVPFLPGKAKVDIDFQGVTIPAGVGLALDVYGTTHDESLWDDPNEFRPERFETWDGSPFDLIPQGGGDYWTNHRCAGEWITVIIMEETMKYFAEKITYDVPEQDLEVDLNSIPGYVKSGFVIKNVREVVDRT
modifications: Jeotgalicoccus sp. ATCC8456
B1: in the assay on B. subtilis IHA01, the “α-olefin produced from stearic acid” value is reported as 1-heptadecene. The α-olefins produced in the assay on E. coli MG1655 ΔfadD is 1-pentadecene and heptadecadiene. The α-olefin production entry in assay [1] is reported as “produces α-olefins”.
